Results published in patent US20060019241A1, “Na+ and CI-coupled transport system for endogenous opioid peptides” (priority 2004, published 2006).
Entries after “also recorded” stand apart in the source; their conditions may differ. Ends that are not written are not given here.

Assays:
[1] = molecular target: Na+- and Cl--coupled transport system for endogenous opioid peptides (human cell lines ARPE-19, Tat-ARPE-19 and SK-N-SH) (human); assay: cell-based or functional assay
[2] = system: deltorphin II transport system in Tat-ARPE-19 cells; assay: Inhibition of [^3H]deltorphin II uptake in Tat-ARPE-19 cells; format: cell-based, human; settings: [^3H]deltorphin II 50 nM; for competition with deltorphin for the uptake process (in words): Tat-ARPE-19 / RPE cells, compound 1 mM; for [^3H] Deltorphin II uptake / [^3H] Deltorphin II uptake (%) of control: Tat-ARPE-19 cells, 30 minutes, NaCl, inhibitor 1 mM; for [^3H] Deltorphin II uptake (%) of control: control = 100
From the text: Stable transfection of ARPE-19 cells with pcDNA-Tat cDNA. The pGEM2-Tat cDNA construct contained as the insert a 295 basepair (bp) fragment encoding the first exon of HIV-1 Tat gene joined to a 145 bp pET3A transcription terminator. The entire insert (440 bp) was removed from the construct by digestion with PstI and EcoRI and ligated into the multiple cloning region of pcDNA3.1 (−) vector at PstI/EcoRI site so that the insert is downstream of the cytomegalovirus (CMV) promoter. The resultant construct was sequenced to confirm the orientation of the insert. This construct was electroporated into ARPE-19 cells and the stably transfected cell clones were isolated in the presence of Geneticin (G418). To serve as a control, empty pcDNA3.1 vector was electroporated into ARPE-19 cells in an identical manner and the clones harboring the vector were selected by G418 resistance.
Uptake measurements in control ARPE-19 cells and Tat-ARPE-19 cells. Control ARPE-19 cells and Tat-ARPE-19 cells were maintained in 75-cm^2 culture flasks in Dulbecco's modified Eagle's medium/F12 medium (1:1, volume/volume (v/v)) in the presence of fetal bovine serum (10%) and G418 (100 μg/ml). For uptake measurements, cells were released by trypsin treatment and seeded in 24-well culture plates at an initial density of 0.1×10^6 cells/well. The culture medium was replaced with fresh medium on the second day following the initial seeding and uptake measurements were made on the third day. […] After incubation at 37° C. for a desired time, uptake was terminated by the removal of the medium and washing of the cells with ice-cold uptake buffer. The cells were then dissolved in 1% SDS in 0.2 M NaOH and used for measurement of radioactivity. The uptake buffer in most experiments was 25 mM Hepes/Tris (pH 7.5), containing 140 mM NaCl, 5.4 mM KCl, 1.8 mM CaCl2, 0.8 mM MgSO4 and 5 mM glucose.
When the influence of Na^+ on the uptake process was investigated, the concentration of NaCl in the uptake buffer was adjusted, as desired, by isoosmotically replacing NaCl with N-methyl-D-glucamine chloride. To assess the influence of Cl^− on the uptake process, the composition of the uptake medium was modified by replacing KCl and CaCl2 with equimolar concentrations of potassium gluconate and calcium gluconate and the concentration of NaCl was adjusted, as desired, by iso-osmotically replacing NaCl with sodium gluconate. Saturation kinetics were analysed by fitting the data to the Michaelis-Menten equation. The Michaelis-Menten constant, Kt, was calculated by non-linear regression analysis and then confirmed by linear regression. Na^+- and Cl^−-activation kinetics were analyzed by fitting the data to the Hill equation and the Hill coefficients for Na^+ and Cl^− (h; the number of Na^+ and Cl^− ions involved in the activation process) and the K0.5 values (the concentration of Na^+ and Cl^−-needed for half-maximal activation) were determined from the analysis. Again, these constants were first calculated by non-linear regression methods and subsequently confirmed by linear regression methods. Experiments were repeated three times in duplicate and the results are given as means±S.E.M.
Substrate specificity of the deltorphin transport system. […] These peptides consisted of 4-13 amino acids.
Relative affinities of endogenous opioid peptides for the transport system.

Substance | IC50 for inhibition of [3H]deltorphin II uptake in Tat-ARPE-19 cells [1] [mM] | [3H]deltorphin II (50 nM) uptake in Tat-ARPE-19 cells, 30 min, NaCl, inhibitor 1 mM (pmol/mg protein/30 min) [1] | [3H]deltorphin II (50 nM) uptake in control ARPE-19 cells, 30 min, NaCl, opioid peptide 1 mM (pmol/mg protein/30 min) [1] | [3H]deltorphin II uptake (%) in Tat-ARPE-19 cells, inhibitor 1 mM [1] | [3H]deltorphin II uptake (%) in control ARPE-19 cells, opioid peptide 1 mM [1] | affinity from concentration-dependent inhibition of [3H]deltorphin II (25 nM) uptake in SK-N-SH cells [1] [µM] | competition with deltorphin for the uptake process (in words) [2] | [^3H] Deltorphin II uptake [2] [pmol/mg protein/30 min] | [^3H] Deltorphin II uptake (%) of control [2] [%]
[Arg6, Gly7, Leu8]Met-enkephalin (Tyr-Gly-Gly-Phe-Met-Arg-Gly-Leu) (peptide) | 2.5 | 0.09 | 0.04 | 1 % of control | 4 % of control | – | – | – | –
Carnosine (β-Ala-His) (peptide) | – | 6.21 | – | 80 % of control | – | – | – | – | –
Dynorphin A (1-7) (Tyr-Gly-Gly-Phe-Leu-Arg-Arg) (peptide) | 7.3 | 0.1 | 0.05 | 1 % of control | 5 % of control | 4.6 | – | – | –
Gly-Gly-Phe-Met [[des-Tyr^1] Met-enkephalin] | – | – | – | – | – | – | marked inhibition | 0.74 ± 0.03 | 10
YGGFMK [α-Neo-endorphin (1-6)] | – | – | – | – | – | – | marked inhibition | 0.19 ± 0.01 | 3
Tyr-Gly-Gly-Phe (YGGF; printed: Tyr-Gly-Gly-Phe) [β-Lipotropin] | – | – | – | – | – | – | no or little inhibition | 6.26 ± 0.31 | 81
Tyr-Pro-Leu-Gly-NH2 (YPLG-NH2) [Tyr-MIF-1] | – | – | – | – | – | – | no or little inhibition; also recorded: not recognized | 9.20 ± 0.15 | 119
YPFPGPI [β-Casomorphin] | – | – | – | – | – | – | – | 2.03 ± 0.05 | 26
Dynorphin A (1-6) (Tyr-Gly-Gly-Phe-Leu-Arg) (peptide) | 4.2 | 0.12 | 0.06 | 2 % of control | 5 % of control | 3.5 | – | – | –
Met-enkephalin (Tyr-Gly-Gly-Phe-Met) (peptide) | 33.2 | 0.5 | 0.06 | 6 % of control | 5 % of control | 10.7 | – | – | –
Tyr-Pro | – | – | – | – | – | – | did not compete | 5.72 ± 0.09 | 74
β-Casomorphin (Tyr-Pro-Phe-Pro-Gly-Pro-Ile) (peptide) | – | 2.03 | – | 26 % of control | – | – | – | – | –
Met-enkephalinamide (Tyr-Gly-Gly-Phe-Met-NH2) (peptide) | 13 | 0.69 | – | 9 % of control | – | – | – | – | –
Leu-enkephalin (Tyr-Gly-Gly-Phe-Leu) (peptide) | 9.5 | 0.15 | – | 2 % of control | – | 7.8 | – | – | –
